In patent US20210261654A1 (BEIJING BEYOND BIOTECHNOLOGY, published 2021):

Target: T1, Recombinant human TNF-α (Sino Biological Inc., catalog number: 10602-HNAE) (human, UniProt P01375 77-233)
T1 construct: Bought protein; also called recombinant human TNF-α protein
Assay: SPR (Biacore T100), BY19.4 captured by anti-IgG on CM5 chip

T1 sequence (P01375 77-233 limits assumed): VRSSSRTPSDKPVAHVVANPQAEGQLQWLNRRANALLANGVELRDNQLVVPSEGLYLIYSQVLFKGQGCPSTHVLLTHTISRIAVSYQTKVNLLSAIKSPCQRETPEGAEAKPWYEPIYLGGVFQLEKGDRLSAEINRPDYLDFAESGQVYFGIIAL

B1: anti-IL-17A antibody BY19.4 (antibody, human IgG4 S228P, kappa, V domains shown)
VH: QVQLVQSGAEVKKPGSSVKVSCKASGYSFTDYHIHWVRQAPGQGLEWMGVINPMYGTTDYNQRFKGRVTITADESTSTAYMELSSLRSEDTAVYYCARYDYFTGTGVYWGQGTLVTVSS
VL: DIVMTQTPLSLSVTPGQPASISCRSSRSLVHSRGNTYLHWYLQKPGQSPQLLIYKVSNRFIGVPDRFSGSGSGTDFTLKISRVEAEDVGVYYCSQSTHLPFTFGQGTKVEIKR
notes: also called control antibody BY19.4; BY19.4 (ixekizumab)
- binding result: no binding (tested: 7 nM to 600 nM tested)
